Test results published in patent US20090041679A1.
Residue numbers refer to the chain shown, from its start. Like-named read-outs stand apart in the source and are kept apart here.

B1: BF1-1 (antibody, V domains shown)
VH: EVQLVQSGPGLVKPSETLSLTCTVSGSSMRTHYWTWIRQPPGKGLEWIGNIYYSGSTDYNPSLKSRVTISVDTSKNQFSLKLSSVTAADTAVYFCARTKHFDILPGGVFDMWGRGTTVTVSS
VL: SYELTQLPSVSVSPGQTATITCSGDRLGDKYACWYQQKPGQSPVLVIFQDTKRPSGIPERFSGSNSGNTATLTISGTQAMDEADYYCQAWDSNIGVFGGGTKLTVL
B2: BF1-10 (antibody, V domains shown)
VH: QVQLQESGPGLVKPSQTLSLTCAVSGGSISSRGYYWSWIRQPPGKGLEWIGYIFYTGGTDYNPSLKSRITISRDTPKNQISLNLSSVTAADTAVYYCARVVDGSSGYHHYYFDYWGQGTLVTVSS
VL: DIQMTQSPASLAVSLGQRATISYRASKSVSTSGYSYMHWNQQKPGQPPRLLIYLVSNLESGVPARFSGSGSGTDFTLNIHPVEEEDAATYYCQHIRELTRSEGGPSWRSN
B3: BF1-19 (antibody, V domains shown)
VH: QVQLQESGPGLVKPSETLSLTCTVSGSSMRTHYWTWIRQPPGKGLEWIGNIYYSGSTDYNPSLKSRVTISVDTSKNQFSLKLSSVTAADTAVYFCARTKHFDILPGGVFDMWGRGTTVSS
VL: B2 VL with Q3V, S106K, R108I

How the values were obtained:
[1] = target: purified H5N1 HA (influenza A virus H5N1)
[2] = target: purified H5N1 HA (influenza A virus H5N1); remark: listed apart in the source

| Binder | Kd [1] | Kd [2] |
| --- | --- | --- |
| B1 | 20.3 nM |  |
| B2 | 10.8 nM | 10 to 50 nM |
| B3 | 48.2 nM | 10 to 50 nM |
